# Laboratory results: patent US20250197485A1, “Anti-ED-A Antibodies for the Treatment of Pulmonary Hypertension” (Universitätsklinikum Jena, priority 2022, published 2025)
# B1: F8 IgG: Chimaeric anti-ED-A antibody: human F8 VH/VL fused to murine IgG2a constant regions; heavy chain SEQ ID NO: 11, light chain SEQ ID NO: 12 (antibody)
# heavy: EVQLLESGGGLVQPGGSLRLSCAASGFTFSLFTMSWVRQAPGKGLEWVSAISGSGGSTYYADSVKGRFTISRDNSKNTLYLQMNSLRAEDTAVYYCAKSTHLYLFDYWGQGTLVTVSSAKTTAPSVYPLAPVCGDTTGSSVTLGCLVKGYFPEPVTLTWNSGSLSSGVHTFPAVLQSDLYTLSSSVTVTSSTWPSQSITCNVAHPASSTKVDKKIEPRGPTIKPCPPCKCPAPNLLGGPSVFIFPPKIKDVLMISLSPIVTCVVVDVSEDDPDVQISWFVNNVEVHTAQTQTHREDYNSTLRVVSALPIQHQDWMSGKEFKCKVNNKDLPAPIERTISKPKGSVRAPQVYVLPPPEEEMTKKQVTLTCMVTDFMPEDIYVEWTNNGKTELNYKNTEPVLDSDGSYFMYSKLRVEKKNWVERNSYSCSVVHEGLHNHHTTKSFSRTPGK
# light: EIVLTQSPGTLSLSPGERATLSCRASQSVSMPFLAWYQQKPGQAPRLLIYGASSRATGIPDRFSGSGSGTDFTLTISRLEPEDFAVYYCQQMRGRPPTFGQGTKVEIKRTDAAPTVSIFPPSSEQLTSGGASVVCFLNNFYPKDINVKWKIDGSERQNGVLNSWTDQDSKDSTYSMSSTLTLTKDEYERHNSYTCEATHKTSTSPIVKSFNRNEC
# Tests used:
# MCT-induced PH [1] = assay: Right heart catheterization (RVPsys) in mouse model of MCT-induced PH; assay type: in vivo, C57BL/6 mice
# Excerpt: PH was induced in C57BL/6 mice (bodyweight: 25-30 g). The animals were obtained from ZET facility (Zentale Experimentelle Tierhaltung) of the University Hospital Jena (UKJ, Jena, Germany). Prior to PH induction, mice were allowed to acclimatize for at least 7 days with ad libitum access to food and water as well as controlled light/dark cycles. 41 animals were investigated divided into the following five experimental groups: • 1) sham induced controls (n=7) • 2) MCT induced PH (n=12) • 3) MCT induced PH+MAC (n=6) • 4) MCT induced PH+F8 IgG (n=8) • 5) MCT induced PH+KSF IgG (n=8)
# For PH induction, the Monocrotaline (MCT, Carl Roth, Germany) method was used.
# The sham induced controls were injected with 30 μl NaCl not containing MCT at day 1 (single dose; intraperitoneally, i.p.). […] The other 4 experimental groups were injected with MCT to induce PH (single dose; intraperitoneally, i.p.; 60 mg/kg body weight; volume 30 μl). Animals in the MCT induced PH+MAC group received the drug (Macitentan, Actelion Pharmaceuticals Ltd.) from day 14 to day 28 (once daily; per os; 15 mg/kg body weight). Animals in the MCT induced PH+F8 IgG group received F8 IgG 3 times on day 14, 16 and 18 (intravenously, i.v.; 195 μg/injection; volume 200 μl). Similarly, animals in the MCT induced PH+KSF IgG group received KSF IgG 3 times on day 14, 16 and 18 (intravenously, i.v.; 195 μg/injection; volume 120 μl).
# On day 28 after MCT injection, mice of all experimental groups were deeply anesthetized with a single dose of 100 mg/kg body weight ketamine and 10 mg/kg body weight Xylazin in approximately 60 μl each administered i.p.
# Right heart catheterization using a 1.4 F micro conductance pressure-volume catheter (Model SPR-839; Millar Instruments Inc; PowerLab system, ADInstruments Ltd., Oxford, UK) was performed via the right vena jugularis interna to measure the systolic right ventricular pressure and thereby verify the success of the experimental setting. Mice were then sacrificed in deep anesthesia and analgesia to carry out cardiac blood collection after thoracotomy and to harvest the organs.
# Statistical analyses were performed using IBM SPSS statistical software, version 28.0 (IBM SPSS Statistics for Windows. Armonk, NY, USA). Data are expressed as mean±standard deviation. Kruskal-Wallis and Mann-Whitney-U test were used to test for significant differences between the different groups. A p-value<0.05 as statistically significant.
# MCT-induced PH [2] = assay: Histological evaluation of lung tissue damage (sum-score) in mouse model of MCT-induced PH; assay type: in vivo, C57BL/6 mice
# Excerpt: PH was induced in C57BL/6 mice (bodyweight: 25-30 g). The animals were obtained from ZET facility (Zentale Experimentelle Tierhaltung) of the University Hospital Jena (UKJ, Jena, Germany). Prior to PH induction, mice were allowed to acclimatize for at least 7 days with ad libitum access to food and water as well as controlled light/dark cycles. 41 animals were investigated divided into the following five experimental groups: • 1) sham induced controls (n=7) • 2) MCT induced PH (n=12) • 3) MCT induced PH+MAC (n=6) • 4) MCT induced PH+F8 IgG (n=8) • 5) MCT induced PH+KSF IgG (n=8) For PH induction, the Monocrotaline (MCT, Carl Roth, Germany) method was used. The sham induced controls were injected with 30 μl NaCl not containing MCT at day 1 (single dose; intraperitoneally, i.p.). […] The other 4 experimental groups were injected with MCT to induce PH (single dose; intraperitoneally, i.p.; 60 mg/kg body weight; volume 30 μl). Animals in the MCT induced PH+MAC group received the drug (Macitentan, Actelion Pharmaceuticals Ltd.) from day 14 to day 28 (once daily; per os; 15 mg/kg body weight). Animals in the MCT induced PH+F8 IgG group received F8 IgG 3 times on day 14, 16 and 18 (intravenously, i.v.; 195 μg/injection; volume 200 μl). Similarly, animals in the MCT induced PH+KSF IgG group received KSF IgG 3 times on day 14, 16 and 18 (intravenously, i.v.; 195 μg/injection; volume 120 μl). Microscopic evaluation to assess histopathological lung tissue damage was performed using H&E as well as Sirius Red stained lung tissue sections according to a defined sum-score (between 0 and 12; maximum score value=highest level of tissue damage) integrating certain histological alterations frequently occurring in PH: percentage of atelectasis area, percentage of emphysema area, degree of media hypertrophy of peribronchial arteries, presence of perivascular cellular edema of peribronchial arteries, and degree of media hypertrophy of small arteries. Statistical analyses were performed using IBM SPSS statistical software, version 28.0 (IBM SPSS Statistics for Windows. Armonk, NY, USA). Data are expressed as mean±standard deviation. Kruskal-Wallis and Mann-Whitney-U test were used to test for significant differences between the different groups. A p-value<0.05 as statistically significant.
# [3] = in contrast to treatment with KSF IgG
molecule,measurement,setting,value
B1,attenuation in RVPsys compared to the MCT-induced PH group without treatment (positive control),"MCT-induced PH [1]; day 28, F8 IgG 195 μg i.v. day 14, 16, 18 (p=0.010), MAC 15 mg/kg per os once daily day 14-28 (n.s.)",significant attenuation
same,RVPsys compared to the group treated with the negative control antibody KSF IgG,"MCT-induced PH [1]; day 28, p=0.003",significantly reduced
same,pressure values in the right ventricle (RVPsys),MCT-induced PH [1]; [3],significant reduction
same,histopathological lung tissue damage (sum-score 0 to 12) compared to the MCT-induced PH group without treatment,"MCT-induced PH [2]; MAC p=0.020, F8 IgG p=0.005, KSF IgG p=0.907",significantly reduced
same,histopathological lung tissue damage (sum-score 0 to 12) compared to negative controls,"MCT-induced PH [2]; all groups p<0.05, F8 IgG p=0.002",significantly increased
same,lung tissue damage at the histopathological level,MCT-induced PH [2]; [3],attenuation
